Reference: the supplement of paper PMC6757056
± gives the standard deviation of the averaged measurements.

B1: library; a variant is named by its letters at N, in order (parent)
chain: GCUGUCACCGGUGUAUUACCCUAGUGGUCGACCGGUCUGAUGAGUCUNNNNNNAGACGAAACAGC

Columns and labels:
hypoxanthine [1] = variants of: B1; test: FACS-Seq fitted mean relative fluorescence mCherry/BFP without ligand (log10 relative fluorescence); ligand: hypoxanthine (xanthine aptamer); higher = higher reporter protein expression; settings: HEK293T, ligand present: no
Outline: (§1)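 An mCherry reporter containing the ribozyme switch and an EF1α-BFP marker were introduced by lentivirus into HEK293T libraries. Cells were enriched, incubated 48 h with or without ligand, sorted into 6 bins by mCherry/BFP, and bin genomic DNA was PCR-amplified, barcoded and sequenced on MiSeq. Fluorescence represents the normalized fitted normal mean of the bin counts. Fitting was done on log10(mCherry/BFP), scaling to five spiked-in control ribozymes.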

hypoxanthine [2] = variants of: B1; test: normalized RNA/DNA level with ligand (relative to sTRSVctl = 100) (log10 (% of sTRSVctl)); ligand: hypoxanthine (xanthine aptamer); higher = less ribozyme self-cleavage, higher mRNA level; settings: ligand concentration (+) RNA-Seq: 5 mM, HEK293T, reporter: mCherry (pCS4076), ligand present: yes
Outline: (§2)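 HEK293T cells were transfected with library plasmids carrying ribozyme switches linked to an mCherry reporter, or an eGFP reporter in some ligand experiments, at 4 µg per well of a 6-well plate, with any ligand added 1 h beforehand. After 72 h, total RNA was extracted with EDTA, reverse-transcribed, amplified, barcoded and sequenced. RNA level was defined as RNA reads over DNA reads, normalized to a spiked-in non-cleaving sequence or to the top-ranked sequences. That value was multiplied by 100 and converted to log10, the top set was 25 sequences, and only sequences with ≥100 DNA reads were retained.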

hypoxanthine [3] = variants of: B1; test: normalized RNA/DNA level without ligand (relative to sTRSVctl = 100) (log10 (% of sTRSVctl)); ligand: hypoxanthine (xanthine aptamer); higher = less ribozyme self-cleavage, higher mRNA level; settings: HEK293T, reporter: mCherry (pCS4076), ligand present: no
Outline: as §2

hypoxanthine [4] = variants of: B1; test: FACS-Seq fitted mean relative fluorescence mCherry/BFP with ligand (log10 relative fluorescence); ligand: hypoxanthine (xanthine aptamer); ligand concentration (+) FACS-Seq: 5 mM; higher = higher reporter protein expression; settings: HEK293T, ligand present: yes
Outline: as §1

Row | Variant | FACS-Seq fitted mean (log10) (hypoxanthine [1]) | normalized RNA/DNA level with ligand (log10) (hypoxanthine [2]) | normalized RNA/DNA level without ligand (log10) (hypoxanthine [3]) | FACS-Seq fitted mean (log10) (hypoxanthine [4])
1 | AGUCAU | 0.385 ± 0.052 | 1.92 ± 0.0085 | 1.79 ± 0.023 | 0.509 ± 0.025
2 | AUAAUU | 0.751 ± 0.0089 | 1.92 ± 0.046 | 1.83 ± 0.061 | 0.619 ± 0.013
3 | AUAAUG | 0.211 ± 0.039 | 1.838 ± 0.013 | 1.51 ± 0.064 | 0.551 ± 0.036
4 | AUAAUA | -0.24 ± 0.021 | 1.886 ± 0.012 | 1.82 ± 0.0094 | -0.134 ± 0.044
5 | AGUAUA | 0.449 ± 0.0061 | 1.91 ± 0.079 | 1.7692 ± 0.0007 | 0.472 ± 0.057
6 | GUAACG | 0.351 ± 0.015 | 1.93 ± 0.048 | 1.59 ± 0.022 | 0.537 ± 0.02
7 | CGUGCA | 0.438 ± 0.026 | 1.932 ± 0.0054 | 1.72 ± 0.03 | 0.662 ± 0.033
8 | CGUGCU | 0.599 ± 0.1 | 1.909 ± 0.0056 | 1.899 ± 0.0073 | 0.518 ± 0.04
9 | AGUACG | 0.173 ± 0.058 | 1.84 ± 0.022 | 1.38 ± 0.052 | 0.423 ± 0.086
10 | AGUUUA | 0.474 ± 0.011 | 1.93 ± 0.025 | 1.79 ± 0.027 | 0.651 ± 0.098
11 | CUAAGU | 0.447 ± 0.0085 | 1.93 ± 0.023 | 1.86 ± 0.031 | 0.262 ± 0.12
12 | CUAAGC | 0.0548 ± 0.024 | 1.94 ± 0.048 | 1.851 ± 0.0075 | 0.039 ± 0.019
13 | CGUUGG | 0.31411 ± 0.00021 | 1.966 ± 0.0055 | 1.413 ± 0.0094 | 0.58 ± 0.022
14 | UUACCG | -0.405 ± 0.057 | 1.899 ± 0.011 | 1.75 ± 0.052 | -0.0713 ± 0.036
15 | AGUCGA | 0.423 ± 0.022 | 1.95 ± 0.035 | 1.61 ± 0.058 | 0.654 ± 0.0092
16 | AGUCGU | 0.577 ± 0.17 | 1.903 ± 0.013 | 1.68 ± 0.029 | 0.561 ± 0.15
17 | AGUCGG | 0.0517 ± 0.00086 | 1.85 ± 0.049 | 1.48 ± 0.085 | 0.38 ± 0.078
18 | GGUGAU | 0.445 ± 0.047 | 1.93 ± 0.039 | 1.763 ± 0.012 | 0.5584 ± 0.0013

Row | Variant | FACS-Seq fitted mean (log10) (hypoxanthine [1]) | normalized RNA/DNA level with ligand (log10) (hypoxanthine [2]) | normalized RNA/DNA level without ligand (log10) (hypoxanthine [3]) | FACS-Seq fitted mean (log10) (hypoxanthine [4])
19 | GGUGAG | -0.242 ± 0.013 | 1.77 ± 0.063 | 1.29 ± 0.086 | 0.303 ± 0.045
20 | GGUGAC | 0.507 ± 0.018 | 1.8808 ± 0.00054 | 1.798 ± 0.0044 | 0.543 ± 0.1
21 | GGUCAC | 0.222 ± 0.021 | 1.91 ± 0.05 | 1.825 ± 0.0063 | 0.633 ± 0.0098
22 | GUACGU | 0.418 ± 0.03 | 1.8918 ± 0.0012 | 1.78 ± 0.067 | 0.626 ± 0.09
23 | GUACGG | -0.0891 ± 0.011 | 1.893 ± 0.016 | 1.4 ± 0.048 | 0.337 ± 0.062
24 | GGUAAC | 0.447 ± 0.063 | 1.96 ± 0.067 | 1.82 ± 0.031 | 0.455 ± 0.018
25 | GGUAAA | 0.652 ± 0.01 | 1.9 ± 0.022 | 1.69 ± 0.007 | 0.581 ± 0.029
26 | GGUAAU | 0.123 ± 0.061 | 1.918 ± 0.019 | 1.79 ± 0.035 | 0.314 ± 0.036
27 | GGUAAG | 0.176 ± 0.027 | 1.744 ± 0.013 | 1.25 ± 0.054 | 0.6778 ± 0.0029
28 | GGUUUA | 0.149 ± 0.053 | 1.96 ± 0.024 | 1.87 ± 0.034 | 0.3294 ± 0.00074
29 | GGUUUU | 0.313 ± 0.029 | 1.93 ± 0.053 | 1.894 ± 0.0067 | 0.378 ± 0.028
30 | GGUUUG | 0.0895 ± 0.042 | 1.9 ± 0.019 | 1.614 ± 0.0086 | 0.485 ± 0.021
31 | CGUACA | 0.575 ± 0.038 | 1.92 ± 0.061 | 1.72 ± 0.037 | 0.49 ± 0.085
32 | CGUACC | 0.313 ± 0.054 | 1.98 ± 0.065 | 1.89 ± 0.021 | 0.536 ± 0.047
33 | AGUCCU | 0.767 ± 0.076 | 1.92 ± 0.085 | 1.895 ± 0.015 | 0.719 ± 0.034
34 | CGUUAA | 0.0819 ± 0.044 | 1.89 ± 0.019 | 1.62 ± 0.049 | 0.118 ± 0.02
35 | UGUAAG | 0.327 ± 0.084 | 1.9 ± 0.033 | 1.67 ± 0.063 | 0.586 ± 0.075
36 | CUACAA | 0.07 ± 0.013 | 1.9 ± 0.013 | 1.79 ± 0.044 | -0.0643 ± 0.025
